According to article PMC7079959:

Target: T1, MS2 bacteriophage coat protein (bacteriophage MS2), P03612
T1 chain: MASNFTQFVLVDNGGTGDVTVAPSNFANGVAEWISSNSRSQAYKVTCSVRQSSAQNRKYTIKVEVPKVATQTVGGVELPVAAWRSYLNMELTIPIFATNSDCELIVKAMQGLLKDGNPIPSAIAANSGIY
Assay: SEC
Conditions: remark: other sources report otherwise

B1: MS2 bacteriophage coat protein, P03612 1-130 (natural protein)
chain: T1 chain
B1 gave a stoichiometry N of 2.
